Results published in US20200129532.

Molecular target: T1, HA-tagged VDR (vitamin D receptor), wild type, P11473
T1 chain: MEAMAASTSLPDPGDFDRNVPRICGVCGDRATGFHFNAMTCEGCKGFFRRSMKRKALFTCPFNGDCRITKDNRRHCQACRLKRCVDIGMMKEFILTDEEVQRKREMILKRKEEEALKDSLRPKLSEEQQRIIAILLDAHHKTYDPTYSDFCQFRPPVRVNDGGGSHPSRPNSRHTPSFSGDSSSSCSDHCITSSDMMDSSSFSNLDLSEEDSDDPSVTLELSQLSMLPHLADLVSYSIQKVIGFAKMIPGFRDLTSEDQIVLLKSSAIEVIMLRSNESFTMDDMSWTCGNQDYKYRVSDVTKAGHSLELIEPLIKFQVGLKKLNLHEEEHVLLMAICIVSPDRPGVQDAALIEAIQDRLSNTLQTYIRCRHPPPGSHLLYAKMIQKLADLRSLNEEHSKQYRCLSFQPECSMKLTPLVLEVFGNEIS

B1: PCAF, wild-type, overexpressed in 293T cells (protein)
chain: MSEAGGAGPGGCGAGAGAGAGPGALPPQPAALPPAPPQGSPCAAAAGGSGACGPATAVAAAGTAEGPGGGGSARIAVKKAQLRSAPRAKKLEKLGVYSACKAEESCKCNGWKNPNPSPTPPRADLQQIIVSLTESCRSCSHALAAHVSHLENVSEEEMNRLLGIVLDVEYLFTCVHKEEDADTKQVYFYLFKLLRKSILQRGKPVVEGSLEKKPPFEKPSIEQGVNNFVQYKFSHLPAKERQTIVELAKMFLNRINYWHLEAPSQRRLRSPNDDISGYKENYTRWLCYCNVPQFCDSLPRYETTQVFGRTLLRSVFTVMRRQLLEQARQEKDKLPLEKRTLILTHFPKFLSMLEEEVYSQNSPIWDQDFLSASSRTSQLGIQTVINPPPVAGTISYNSTSSSLEQPNAGSSSPACKASSGLEANPGEKRKMTDSHVLEEAKKPRVMGDIPMELINEVMSTITDPAAMLGPETNFLSAHSARDEAARLEERRGVIEFHVVGNSLNQKPNKKILMWLVGLQNVFSHQLPRMPKEYITRLVFDPKHKTLALIKDGRVIGGICFRMFPSQGFTEIVFCAVTSNEQVKGYGTHLMNHLKEYHIKHDILNFLTYADEYAIGYFKKQGFSKEIKIPKTKYVGYIKDYEGATLMGCELNPRIPYTEFSVIIKKQKEIIKKLIERKQAQIRKVYPGLSCFKDGVRQIPIESIPGIRETGWKPSGKEKSKEPRDPDQLYSTLKSILQQVKSHQSAWPFMEPVKRTEAPGYYEVIRFPMDLKTMSERLKNRYYVSKKLFMADLQRVFTNCKEYNPPESEYYKCANILEKFFFSKIKEAGLIDK
VDR acetylation: VDR acetylation indeed increased when expressed together with PCAF
